Like-named read-outs stand apart in the source and are kept apart here.
What was measured:
[1] = target: SPA-KLPO (SPA-KLP with Lys67 replaced by hydroxyproline)
[2] = target: SPA-KLPOS (SPA-KLPO with the cysteine of the kink replaced by serine)
[3] = target: SPA-KLPOdel (SPA-KLPO with the kink sequence PCPP removed)
[4] = target: SPA-KLP (SP-A with Glu63 to Lys, Cys64 to Leu and Glu66 to Pro)
[5] = target: Recombinant rat mannose-binding lectin (MBL), wild-type (rat) (UniProt P19999); experiment: SPR
[6] = target: SPA-KLPO (SPA-KLP with Lys67 replaced by hydroxyproline); experiment: SPR
[7] = target: SPA-KLPOS (SPA-KLPO with the cysteine of the kink replaced by serine); experiment: SPR
[8] = target: Rat MBL, kink mutant (kink-like region removed by insertion of a proline residue) (rat) (UniProt P19999); experiment: SPR
[9] = target: Recombinant rat mannose-binding lectin (MBL), wild-type (rat) (UniProt P19999); experiment: SPR; remark: listed apart in the source
[10] = target: SPA-KL (SP-A with Glu63 to Lys and Cys64 to Leu); experiment: SPR
[11] = target: Rat MBL, double-deletion mutant (two Gly-Xaa-Yaa triplets removed from the collagenous domain) (rat) (UniProt P19999); experiment: SPR
[12] = target: Rat MBL, insertion mutant (a single Gly-Pro-Hyp inserted near the kink-like region) (rat) (UniProt P19999); experiment: SPR
[13] = target: Rat MBL, deletion mutant (one Gly-Xaa-Yaa triplet removed from the collagenous domain) (rat) (UniProt P19999); experiment: SPR
[14] = target: SPA-KLPOdel (SPA-KLPO with the kink sequence PCPP removed); experiment: SPR
[15] = target: SPA-KLP (SP-A with Glu63 to Lys, Cys64 to Leu and Glu66 to Pro); experiment: SPR

MASP-2K (rat MBL-associated serine protease-2, catalytically active, Arg424 to Lys) (enzyme)
Half-time for MASP-2K activation, fucose-Sepharose as target [1]: 256 min | Half-time for MASP-2K activation, fucose-Sepharose as target [2]: 166 min | Half-time for MASP-2K activation, fucose-Sepharose as target [3]: 316 min | Half-time for MASP-2K activation, fucose-Sepharose as target [4]: 270 min

MASP-2A (rat MBL-associated serine protease-2, catalytically inactive, Ser613 to Ala) (enzyme)
KD, complex 1 [5]: 3.8 nM | KD, complex 2 [5]: 166 nM | KD, complex 1 [6]: 97 nM | KD, complex 2 [6]: 232 nM | koff, complex 1 [6]: 0.0025 s⁻¹ | koff, complex 2 [6]: 0.022 s⁻¹ | kon, complex 1 [6]: 26000 M⁻¹ s⁻¹ | kon, complex 2 [6]: 96000 M⁻¹ s⁻¹ | KD, complex 1 [7]: 99 nM | KD, complex 2 [7]: 203 nM | koff, complex 1 [7]: 0.0046 s⁻¹ | koff, complex 2 [7]: 0.037 s⁻¹ | kon, complex 1 [7]: 45000 M⁻¹ s⁻¹ | kon, complex 2 [7]: 210000 M⁻¹ s⁻¹ | KD, complex 2 [8]: 136 nM | koff, complex 1 [8]: 0.0062 s⁻¹ | KD, complex 2 [9]: 165 nM | koff, complex 2 [9]: 0.00475 s⁻¹ | KD, complex 2 [10]: 2120 nM | KD, complex 2 [11]: 195 nM | KD, complex 1 [12]: 4.9 nM | KD, complex 2 [12]: 199 nM | KD, complex 2 [13]: 175 nM | koff, complex 1 [13]: 0.0038 s⁻¹ | koff, complex 2 [13]: 0.0054 s⁻¹ | KD, complex 1 [14]: 29 nM | KD, complex 2 [14]: 114 nM | koff, complex 1 [14]: 0.0017 s⁻¹ | koff, complex 2 [14]: 0.021 s⁻¹ | kon, complex 1 [14]: 53000 M⁻¹ s⁻¹ | KD, complex 2 [15]: 104 nM | koff, complex 2 [15]: 0.0176 s⁻¹ | kon, complex 1 [15]: 54000 M⁻¹ s⁻¹ | kon, complex 2 [15]: 360000 M⁻¹ s⁻¹

From publication PMC2856262
